Data reported in PMC5090066, “An affinity-directed protein missile system for targeted proteolysis” (Open Biology, 2016).

Experiments:
[1] = biological target: T1, PAWS1-GFP (endogenous PAWS1/FAM83G with a GFP tag knocked in at the C-terminus) (Aequorea victoria GFP (tag on human …, UniProt P42212 = GFP)); test: pull-down; aGFP16 tethered to sepharose beads; cell extracts; pull-downs and flow-through extracts analysed; conditions: one partner purified
T1 construct: PAWS1 (FAM83G), human, expressed from its own locus; GFP tag knocked in around the stop codon of PAWS1; donor construct DU48585; also called protein associated with SMAD1; source: endogenous, homozygous CRISPR/Cas9 knock-in U2OS cells, in cell extract

[2] = biological target: T2, GFP-VPS34 (endogenous VPS34 with a GFP tag knocked in at the N-terminus) (Aequorea victoria GFP (tag on human …, UniProt P42212 = GFP)); test: as above; conditions: one partner purified
T2 construct: GFP tag knocked in around the start codon of VPS34; donor construct DU52175; VPS34, class III phosphatidylinositol 3-kinase, human, expressed from its own locus; also called vacuolar protein sorting 34; source: endogenous, homozygous CRISPR/Cas9 knock-in HEK293 cells, in cell extract

B1: aGFP16, cameloid anti-GFP nanobody, tethered to sepharose beads (VHH)
VHH: QVQLVESGGRLVQAGDSLRLSCAASGRTFSTSAMAWFRQAPGREREFVAAITWTVGNTILGDSVKGRFTISRDRAKNTVDLQMDNLEPEDTAVYYCSARSRGYVLSVLRSVDSYDYWGQGTQVTVSG
notes: DU54238 is the cDNA in the pBABED/pRetroX vectors
- binding result [1]: binds
- binding result [2]: binds
